Entries after “also recorded” stand apart in the source; their conditions may differ.
Experiments:
[1] = system: FIX/FIXa; experiment: Western Blot and ELISA reactivity with FIX/FIXa; assay type: binding
Experimental: Factor IX and the two activated forms of FIX, FIXaα and FIXaβ (FIX/FIXa(α,β)) were diluted in TBS (25 mM Tris HCl, 150 mM NaCl, pH 7.5) to a final concentration of 2 μg/ml. Nunc Maxisorp ELISA plates were coated with 100 μl FIX/FIXa(α,β) solution according to standard procedures (4° C., overnight) and washed several times with TBST (TBS, 0.1% (v/v) Tween 20). 50 μl hybridoma supernatant was diluted 1:1 with 50 μl TBST/2% BSA and added to the coated ELISA plate. After an incubation period of 2 h at room temperature (RT), plates were washed 4 times with TBST and incubated (2 h, RT) with 100 μl/well of a 1:25000 dilution (in TBST/1% BSA) of an anti-mouse IgG (Fc-specific) peroxidase conjugated antibody (Sigma, #A-0168). Wells were washed 5 times with TBST and finally stained with 100 μl freshly prepared staining solution (10 ml 50 mM sodium citrate, pH 5 supplemented with 100 μl OPD (60 mg OPD/ml) and 10 μl 30% H2O2). The reaction was stopped by the addition of […] H2SO4 and the optical density recorded at 492 nm and 620 nm in a Labsystems iEMS Reader MF™ microtiter plate reader employing GENESIS™ software. […]

[2] = target: T1, factor IXa (Bos taurus, UniProt P00741); experiment: Chromogenic FVIII assay (COATEST VIII:C/4) with the kit's FIXa/FX; assay type: biochemical, bovine; conditions: purified IgG (198/AC1/1 10 μg/ml) or unpurified IgM supernatant
T1 construct: purchased Chromogenix COATEST VIII:C/4
Experimental: In order to assay the FVIII-like activity of anti-FIXa antibodies secreted by hybridoma cells, the commercially available test-kit COATEST VIII:C/4® (Chromogenix) was employed. The assay was done essentially as described by the manufacturer with the following modifications:
To allow high throughput screening, the assay was downscaled to microtiter plate format. Briefly, 25 μl aliquots of hybridoma supernatants were transferred to microtiter plate (Costar, #3598) wells and warmed to 37° C. Chromogenic substrate (S-2222), synthetic thrombin inhibitor (I-2581), factor (F) IXa and FX were reconstituted in sterile water and FIXa/FX was mixed with phospholipids according to the supplier's protocol. Per reaction, 50 μl of the phospholipid/FIXa/FX solution were combined with 25 μl CaCl2 (25 mM) and 50 μl of the substrate/inhibitor cocktail. To start the reaction, 125 μl of the premix were added to the hybridoma supernatant in the microtiter plates and incubated at 37° C. Absorbency at 405 nm and 490 nm of the samples was read at various times (30 min to 12 h) against a reagent blank (MLW, cell culture medium instead of hybridoma supernatant) in a Labsystems iEMS Reader MF™ microtiter plate reader. FVIII-like activity of the samples was calculated by comparing the absorbency of the samples against the absorbency of a diluted FVIII reference standard (IMMUNO AG #5T4AR00) using GENESIS™ software.
Several anti-FIX/FIXa antibody producing hybridoma clones were subcloned up to four times and the resulting monoclonal hybridoma cell line used to produce monoclonal antibody containing supernatant. IgG isotype antibodies derived from these supernatants were purified over affinity columns and dialyzed against TBS (see above). IgM antibodies were used as unpurified supernatant fractions. […] Absorbance at 405 nm and 490 nm of the samples was read at various times (5 min to 6 h) against a reagent blank (cell culture medium instead of hybridoma supernatant) in a Labsystems iEMS Reader MF™ microtiter plate reader using GENESIS™ software. […]

[3] = system: FVIII deficient plasma; experiment: aPTT based one stage clotting assay in FVIII deficient plasma; assay type: biochemical, human; conditions: for clotting time: 50 ng FIXa
Procedure, shortened: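 Test samples preincubated 4 min with FVIII-deficient plasma and aPTT reagent (DAPTTIN or Pathromtin SL), optionally with 50 ng activated FIX; clotting started with 25 mM CaCl2. Read-out is clotting time from start to clot formation, set against FVIII, buffer or scrambled-peptide controls.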

[4] = system: FVIII inhibitor plasma; experiment: aPTT based one stage clotting assay in FVIII inhibitor plasma; assay type: biochemical; conditions: inhibitor potency 400 BU/ml, 50 ng activated FIXa
Experimental: […] […] […] After a 4 minute incubation, the reaction was started by the addition of 100 μl CaCl2 (25 mM). To ensure equal conditions, the experiments employing FVIII deficient plasma and FVIII inhibitor plasma were done side by side.
To assay for the procoagulant activity of peptide A1/3 in FVIII inhibitor plasma the following experiment was carried out. We performed a standard aPTT based one stage clotting assay, but instead of FVIII deficient plasma we employed FVIII inhibitor plasma.

T1 sequence (P00741 47-192 limits assumed): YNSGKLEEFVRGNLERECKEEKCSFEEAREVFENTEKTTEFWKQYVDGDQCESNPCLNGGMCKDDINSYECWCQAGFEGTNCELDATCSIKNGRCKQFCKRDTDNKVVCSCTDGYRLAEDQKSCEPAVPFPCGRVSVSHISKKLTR
T1 sequence (P00741 228-462 limits assumed): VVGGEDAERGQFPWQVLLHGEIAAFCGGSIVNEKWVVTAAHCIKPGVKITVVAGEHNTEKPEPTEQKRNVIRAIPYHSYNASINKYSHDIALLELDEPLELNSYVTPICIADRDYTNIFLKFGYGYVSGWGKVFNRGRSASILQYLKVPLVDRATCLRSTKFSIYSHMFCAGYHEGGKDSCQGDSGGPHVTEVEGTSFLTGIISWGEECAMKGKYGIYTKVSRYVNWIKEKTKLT

Row | Molecule | reactivity with FIX/FIXa [1] | time course of FVIII-like activity (chromogenic substrate cleavage, OD 405 nm) [2] | clotting time ([3]; 0.23 μg AB) [s] | clotting time ([3]; 0.34 μg AB) [s] | clotting time ([3]; 0.45 μg AB) [s] | clotting time ([3]; 0.9 μg AB) [s] | clotting time ([3]; 1.35 μg AB) [s] | clotting time ([3]; 1.8 μg AB) [s] | clotting time ([3]; 2.25 μg AB) [s] | clotting time ([3]; 4.5 μg AB) [s] | clotting time ([3]; 9 μg AB) [s] | procoagulant activity ([3]; one-stage clotting assay in the presence of FIXa) | reduction of the clotting time ([3]; various amounts of antibody, 50 ng activated FIX) | reduction of the clotting time [4]
1 | #8860: irrelevant monoclonal antibody, negative control (protein) chain 1: EVQLQQSGPELVKPGASVKISCKASGYAFSSSWMNWVKQRPGQGLEWIGRIYPGNGDTNYNGKFKGKATLTADKSSSTAYMQLSSLTSVDSAVYFCADGNVYYYAMDYWGQGTSVTVSS chain 2: QIVLTQSPASLAVSLGQRATISCRASKSVSTSGYSYMHWYQQKPGQPPKLLIYLASNLESGVPARFSGSGSGTDFTLNIHPVEEEDAATYYCQHSRELPRTFGGGTKLEIKR | does not react with FIX/FIXa | – | – | – | – | – | – | – | – | – | – | – | – | –
2 | 193/AD3: anti-FIX/FIXa monoclonal antibody, IgG isotype; scFv SEQ. ID. NOs. 81 and 82 (protein, scFv derived from IgG; Description of Artificial Sequence:scFv from hybridoma cell line 193/AD3, anti-FIX/FIXa monoclonal antibody, IgG isotype; ID; NOs; 81 and 82) scFv: EVKLVESGPELKKPGETVKISCKASGYIFTNYGMNWVKQAPGKGLKWMGWINTYTGEPTYADDFKGRFAFSLETSASTAYLQINNLKNEDTATYFCALYGNSPKGFAYWGQGTLVTVSAGGGGSGGRASGGGGSDIQMTQSPKFLLVSAGDRVTITCKASQSVSNDVAWYQQKPGQSPKLLMYYASNRYTGVPDRFTGSGYGTDFTFTISTVQAEDLAVYFCQQDYGSPPTFGGGTKLEIKR | – | give rise to chromogenic substrate cleavage; also recorded: gave rise to chromogenic substrate cleavage | 99.3 | 97.1 | 98.1 | 94.4 | 91.4 | 93.7 | 93.1 | 95.6 | 101.6 | procoagulant | clear dose-dependent reduction of the clotting time; also recorded: reduction in the coagulation time | clear dose-dependent reduction of the clotting time

Source: patent publication US7279161B2, “Factor IX/factor IXa activating antibodies and antibody derivatives” (Baxter Aktiengesellschaft, priority 1999, dated 2007)
